Reference: FireProtDB (doi:10.1021/bi00010a002)

Conditions: Saccharomyces cerevisiae (strain ATCC 204508 / S288c), pH 2.1, Thermal, CD, Na2SO4-H2SO4 0.33 M
[1] = reversible: yes (>80%), structure 1YCC
[2] = reversible: yes (>70%), structure 1YCC

Chain of Cytochrome c isoform 1 F16W, P00044 (P00044 whole entry F16W, canonical isoform): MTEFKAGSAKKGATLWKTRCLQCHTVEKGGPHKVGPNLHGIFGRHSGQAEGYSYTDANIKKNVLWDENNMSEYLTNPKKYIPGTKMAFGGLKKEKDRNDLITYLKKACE
Chain of Cytochrome c isoform 1 A13Y, P00044 (P00044 whole entry A13Y, canonical isoform): as the sequence (P00044 whole entry F16W, canonical isoform) above, with A13Y, W16F counted along it
Chain of Cytochrome c isoform 1 F16Y, P00044 (P00044 whole entry F16Y, canonical isoform): as the sequence (P00044 whole entry F16W, canonical isoform) above, with W16Y counted along it
Chain of Cytochrome c isoform 1 L100I, P00044 (P00044 whole entry L100I, canonical isoform): as the sequence (P00044 whole entry F16W, canonical isoform) above, with W16F, L100I counted along it
Chain of Cytochrome c isoform 1 A13L, P00044 (P00044 whole entry A13L, canonical isoform): as the sequence (P00044 whole entry F16W, canonical isoform) above, with A13L, W16F counted along it
Chain of Cytochrome c isoform 1 Y103F, P00044 (P00044 whole entry Y103F, canonical isoform): as the sequence (P00044 whole entry F16W, canonical isoform) above, with W16F, Y103F counted along it
Chain of Cytochrome c isoform 1 wild type, P00044 (P00044 whole entry, canonical isoform): as the sequence (P00044 whole entry F16W, canonical isoform) above, with W16F counted along it

Substance | Tm [1] | change of melting temperature, mutant - wild type (higher = more stable) [1] | unfolding enthalpy (van 't Hoff) [1] | Tm (reversible: yes (>90%)) | unfolding enthalpy (van 't Hoff) (reversible: yes (>90%)) | Tm [2] | change of melting temperature, mutant - wild type (higher = more stable) [2] | unfolding enthalpy (van 't Hoff) [2]
Cytochrome c isoform 1 A13L, P00044 | 33.7 °C | -1.7 °C | 159 kJ/mol | – | – | – | – | –
Cytochrome c isoform 1 wild type, P00044 | – | – | – | 35.4 °C | 159 kJ/mol | – | – | –
Cytochrome c isoform 1 Y103F, P00044 | 33.3 °C | -2.1 °C | 138 kJ/mol | – | – | – | – | –
Cytochrome c isoform 1 A13Y, P00044 | 36 °C | 0.6 °C | 174 kJ/mol | – | – | – | – | –
Cytochrome c isoform 1 F16W, P00044 | 23.1 °C | -12.3 °C | 121 kJ/mol | – | – | – | – | –
Cytochrome c isoform 1 L100I, P00044 | 33.7 °C | -1.7 °C | 150 kJ/mol | – | – | – | – | –
Cytochrome c isoform 1 F16Y, P00044 | – | – | – | – | – | 28.4 °C | -7 °C | 170 kJ/mol
